# Reference: patent publication CN117050178A (BEIJING BIOSYSTEMS BIOLOGICAL TECH CO LTD, dated 2023)
# T1: 人IL-7蛋白 (human, UniProt P13232 26-177)
# T1 construct: also called 人源IL-7
# T1 sequence (looked up): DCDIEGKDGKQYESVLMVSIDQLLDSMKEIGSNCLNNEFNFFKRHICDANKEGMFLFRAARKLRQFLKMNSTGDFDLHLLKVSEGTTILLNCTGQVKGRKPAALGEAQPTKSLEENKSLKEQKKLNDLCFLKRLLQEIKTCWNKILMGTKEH
# T2: 人源IL-4蛋白 (human, UniProt P05112 25-153)
# T2 sequence (looked up): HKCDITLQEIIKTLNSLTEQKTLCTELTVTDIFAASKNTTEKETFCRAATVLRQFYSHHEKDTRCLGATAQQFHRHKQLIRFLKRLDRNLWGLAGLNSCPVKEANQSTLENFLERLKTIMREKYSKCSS
# Experiments:
# 人IL-7蛋白 = target: T1, 人IL-7蛋白; assay: indirect ELISA, cell supernatant on coated human IL-7 (2 μg/mL)
# 人源TNF-alpha蛋白 = 人源TNF-alpha蛋白 (human, UniProt P01375 77-233); assay: indirect ELISA, cell supernatant on coated cytokine
# 人源IL-21蛋白 = 人源IL-21蛋白 (human, UniProt Q9HBE4 32-162, limits assumed); assay: as above
# 人源IL-2蛋白 = 人源IL-2蛋白 (human, UniProt P60568 21-153); assay: as above
# 人源IL-10蛋白 = 人源IL-10蛋白 (human, UniProt P22301 19-178); assay: as above
# 人源GM-CSF蛋白 = 人源GM-CSF蛋白 (human, UniProt P04141 18-144); assay: as above
# 人源IL-6蛋白 = 人源IL-6蛋白 (human, UniProt P05231 30-212); assay: as above
# 人源IL-15蛋白 = 人源IL-15蛋白 (human, UniProt P40933 49-162); assay: as above
# 人源IL-4蛋白 = target: T2, 人源IL-4蛋白; assay: as above
# Sequence of 人源IL-21蛋白 (Q9HBE4 32-162 limits assumed): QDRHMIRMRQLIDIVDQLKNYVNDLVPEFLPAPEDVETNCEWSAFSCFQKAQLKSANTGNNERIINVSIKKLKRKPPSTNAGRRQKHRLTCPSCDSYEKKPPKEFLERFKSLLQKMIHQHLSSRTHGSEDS
# Sequence of 人源GM-CSF蛋白 (P04141 18-144 limits assumed): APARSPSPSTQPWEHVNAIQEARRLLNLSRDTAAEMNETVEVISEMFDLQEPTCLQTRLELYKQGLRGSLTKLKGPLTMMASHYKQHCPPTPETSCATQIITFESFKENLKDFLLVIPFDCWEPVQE
# Sequence of 人源IL-2蛋白 (P60568 21-153 limits assumed): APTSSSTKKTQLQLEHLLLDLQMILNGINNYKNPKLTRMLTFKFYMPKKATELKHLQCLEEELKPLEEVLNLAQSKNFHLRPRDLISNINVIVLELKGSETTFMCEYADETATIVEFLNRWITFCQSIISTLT
# Sequence of 人源IL-10蛋白 (P22301 19-178 limits assumed): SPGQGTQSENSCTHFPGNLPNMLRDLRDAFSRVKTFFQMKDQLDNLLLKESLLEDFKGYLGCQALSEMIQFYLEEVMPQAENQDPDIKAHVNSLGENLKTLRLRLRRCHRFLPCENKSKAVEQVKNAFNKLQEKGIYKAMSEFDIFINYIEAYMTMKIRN
# Sequence of 人源IL-15蛋白 (P40933 49-162 limits assumed): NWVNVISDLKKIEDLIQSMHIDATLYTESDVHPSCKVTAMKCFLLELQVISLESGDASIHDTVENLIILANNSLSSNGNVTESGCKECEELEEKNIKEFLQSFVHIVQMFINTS
# Sequence of 人源TNF-alpha蛋白 (P01375 77-233 limits assumed): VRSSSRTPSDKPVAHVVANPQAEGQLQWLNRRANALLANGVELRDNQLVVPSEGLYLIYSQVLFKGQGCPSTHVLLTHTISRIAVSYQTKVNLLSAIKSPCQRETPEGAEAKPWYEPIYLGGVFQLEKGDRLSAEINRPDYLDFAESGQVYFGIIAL
binder,measurement,setting,value
"抗体8E8B10 (antibody, V domains shown, Mouse hybridoma monoclonal antibody; also called Clone 8E8B10; 克隆号8E8B10) VH: QVQLQQPGAELLRPGASVKLSCKTSGFTFTRYWINWVKQRPGQGLEWIGMIDPFDSETHYNQVFKDKATLTVDKSSSTAYMYMSSLTSEDSAVYYCARYFVYFDTVDFWGQGTSLTVSS VL: DVVMTQTPLSLPVSLGGQASISCRSGQSLVHSDGNTYLHWYLQRPGQSPKLLIYKVSNRFSGVPDRFSGSGSGTNFTLKISRVEAEDLGVYFCSQNTHVPYTFGGGTKLEMK",binding result,人IL-7蛋白,binds
same,binding result,人源TNF-alpha蛋白,no binding (tested: antigen coated at 2 μg/mL)
same,binding result,人源IL-21蛋白,no binding (tested: antigen coated at 2 μg/mL)
same,binding result,人源IL-2蛋白,no binding (tested: antigen coated at 2 μg/mL)
same,binding result,人源IL-10蛋白,no binding (tested: antigen coated at 2 μg/mL)
same,binding result,人源GM-CSF蛋白,no binding (tested: antigen coated at 2 μg/mL)
same,binding result,人源IL-6蛋白,no binding (tested: antigen coated at 2 μg/mL)
same,binding result,人源IL-15蛋白,no binding (tested: antigen coated at 2 μg/mL)
same,binding result,人源IL-4蛋白,no binding (tested: antigen coated at 2 μg/mL)
